Source: the supplement of paper PMC7125110
± gives the standard error. For some of these results: This sample holds only a part of the variants without activity.

B1: glmS ribozyme (parent)
chain: AUAAAAGCGCCAGAACUACAGAAAUGUAGUUGACGAGGAGGAGGUUUAUCGAAUUUUCGGCGGAUGCCUCCAAA

Legend:
Conditions in all cases: with glucosamine-6-phosphate
[1] = variants of: B1; assay: kcat; higher = faster cleavage; RNA array
Procedure, shortened: (§1)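 In situ transcription by E. coli RNA polymerase produced barcoded ribozyme variants on sequenced MiSeq chips, and a hybridised Cy3 probe tracked them at 37 °C. Glucosamine-6-phosphate was flowed in at 40 μM to 10 mM in HEPES/KCl/Mg(OAc)2 buffer. kcat and KM were taken from weighted Michaelis–Menten fits of kobs values from exponential decay fits.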

[2] = variants of: B1; assay: KM; higher = weaker cofactor use; RNA array
Procedure, shortened: as §1

[3] = variants of: B1; assay: self-cleavage kobs at 40 uM GlcN6P; higher = faster cleavage; RNA array
Procedure, shortened: as §1

[4] = variants of: B1; assay: self-cleavage kobs at 160 uM GlcN6P; higher = faster cleavage; RNA array
Procedure, shortened: as §1

[5] = variants of: B1; assay: self-cleavage kobs at 640 uM GlcN6P; higher = faster cleavage; RNA array
Procedure, shortened: as §1

[6] = variants of: B1; assay: self-cleavage kobs at 2500 uM GlcN6P; higher = faster cleavage; RNA array
Procedure, shortened: as §1

[7] = variants of: B1; assay: self-cleavage kobs at 10000 uM GlcN6P; higher = faster cleavage; RNA array
Procedure, shortened: as §1

Variant: G37A
- kcat [1]: 0.00564 ± 0.001 s⁻¹
- KM [2]: 3540 ± 830 µM
- self-cleavage kobs at 40 uM GlcN6P [3]: 7.38e-05 ± 1.4e-06 s⁻¹
- self-cleavage kobs at 160 uM GlcN6P [4]: 0.000198 ± 7.5e-06 s⁻¹
- self-cleavage kobs at 640 uM GlcN6P [5]: 0.000777 ± 1.7e-05 s⁻¹
- self-cleavage kobs at 2500 uM GlcN6P [6]: 0.00255 ± 7.6e-05 s⁻¹
- self-cleavage kobs at 10000 uM GlcN6P [7]: 0.00419 ± 8.2e-05 s⁻¹

Variant: A36G A53U
- kcat [1]: 1.3e-05 ± 2.6e-06 s⁻¹
- self-cleavage kobs at 40 uM GlcN6P [3]: < 1e-05 s⁻¹
- self-cleavage kobs at 160 uM GlcN6P [4]: < 1e-05 s⁻¹

Variant: G37A U69G
- kcat [1]: 2.13e-05 ± 3.7e-06 s⁻¹

Variant: G37A U69A
- kcat [1]: 7.14e-05 ± 8.5e-06 s⁻¹
- KM [2]: 7590 ± 2000 µM
- self-cleavage kobs at 10000 uM GlcN6P [7]: 4.06e-05 ± 8.5e-06 s⁻¹

Variant: A39G A53G C67G
- kcat [1]: 0.00302 ± 0.001 s⁻¹
- self-cleavage kobs at 40 uM GlcN6P [3]: 0.000234 ± 7.2e-05 s⁻¹
- self-cleavage kobs at 160 uM GlcN6P [4]: 0.000647 ± 0.00024 s⁻¹
- self-cleavage kobs at 640 uM GlcN6P [5]: 0.00135 ± 0.00029 s⁻¹
- self-cleavage kobs at 2500 uM GlcN6P [6]: 0.00536 ± 0.0012 s⁻¹
- self-cleavage kobs at 10000 uM GlcN6P [7]: 0.00257 ± 0.00072 s⁻¹

Variant: A39C U45G
- kcat [1]: 0.00234 ± 0.00083 s⁻¹
- KM [2]: 2340 ± 1100 µM
- self-cleavage kobs at 40 uM GlcN6P [3]: 6.34e-05 ± 1.1e-05 s⁻¹
- self-cleavage kobs at 160 uM GlcN6P [4]: 0.000127 ± 1.4e-05 s⁻¹
- self-cleavage kobs at 640 uM GlcN6P [5]: 0.000759 ± 0.0001 s⁻¹
- self-cleavage kobs at 2500 uM GlcN6P [6]: 0.00114 ± 0.00018 s⁻¹
- self-cleavage kobs at 10000 uM GlcN6P [7]: 0.00189 ± 0.00029 s⁻¹

Variant: A39C A42U
- kcat [1]: 0.000187 ± 4e-05 s⁻¹
- self-cleavage kobs at 2500 uM GlcN6P [6]: 0.000135 ± 2.9e-05 s⁻¹
- self-cleavage kobs at 10000 uM GlcN6P [7]: 0.000143 ± 2.2e-05 s⁻¹

Variant: G37A U54C
- kcat [1]: 0.00259 ± 0.00054 s⁻¹
- KM [2]: 3190 ± 910 µM
- self-cleavage kobs at 40 uM GlcN6P [3]: 4.82e-05 ± 1.6e-05 s⁻¹
- self-cleavage kobs at 160 uM GlcN6P [4]: 0.000124 ± 2.7e-05 s⁻¹
- self-cleavage kobs at 640 uM GlcN6P [5]: 0.000375 ± 8.4e-05 s⁻¹
- self-cleavage kobs at 2500 uM GlcN6P [6]: 0.00127 ± 0.00026 s⁻¹
- self-cleavage kobs at 10000 uM GlcN6P [7]: 0.00192 ± 0.00042 s⁻¹

Variant: G37U C68G
- kcat [1]: 2.11e-05 ± 5e-06 s⁻¹

Variant: A36U C67G
- kcat [1]: 1.75e-05 ± 5.9e-06 s⁻¹

Variant: A39G U56A
- kcat [1]: 0.0171 ± 0.0023 s⁻¹
- KM [2]: 1670 ± 340 µM
- self-cleavage kobs at 40 uM GlcN6P [3]: 0.000348 ± 6.9e-05 s⁻¹
- self-cleavage kobs at 160 uM GlcN6P [4]: 0.00162 ± 0.00029 s⁻¹
- self-cleavage kobs at 640 uM GlcN6P [5]: 0.0049 ± 0.00073 s⁻¹
- self-cleavage kobs at 2500 uM GlcN6P [6]: 0.0133 ± 0.0025 s⁻¹
- self-cleavage kobs at 10000 uM GlcN6P [7]: 0.0137 ± 0.0019 s⁻¹

Variant: C34U C58A
- kcat [1]: < 1e-05 s⁻¹
- self-cleavage kobs at 40 uM GlcN6P [3]: < 1e-05 s⁻¹
- self-cleavage kobs at 640 uM GlcN6P [5]: < 1e-05 s⁻¹
- self-cleavage kobs at 2500 uM GlcN6P [6]: < 1e-05 s⁻¹

Variant: C34U C58G
- kcat [1]: < 1e-05 s⁻¹
- self-cleavage kobs at 10000 uM GlcN6P [7]: < 1e-05 s⁻¹

Variant: C34G C70U
- kcat [1]: < 1e-05 s⁻¹
- self-cleavage kobs at 10000 uM GlcN6P [7]: < 1e-05 s⁻¹

Variant: A39C C71U
- kcat [1]: 0.00106 ± 0.00018 s⁻¹
- KM [2]: 1570 ± 470 µM
- self-cleavage kobs at 40 uM GlcN6P [3]: 4.78e-05 ± 7.5e-06 s⁻¹
- self-cleavage kobs at 160 uM GlcN6P [4]: 9.02e-05 ± 1.2e-05 s⁻¹
- self-cleavage kobs at 640 uM GlcN6P [5]: 0.000275 ± 3.1e-05 s⁻¹
- self-cleavage kobs at 2500 uM GlcN6P [6]: 0.000738 ± 8.5e-05 s⁻¹
- self-cleavage kobs at 10000 uM GlcN6P [7]: 0.000904 ± 7.4e-05 s⁻¹

Variant: A39C C67A
- kcat [1]: 0.00061 ± 0.00015 s⁻¹
- KM [2]: 1790 ± 670 µM
- self-cleavage kobs at 40 uM GlcN6P [3]: 2.37e-05 ± 5.8e-06 s⁻¹
- self-cleavage kobs at 160 uM GlcN6P [4]: 5.89e-05 ± 7.1e-06 s⁻¹
- self-cleavage kobs at 640 uM GlcN6P [5]: 0.000144 ± 1.2e-05 s⁻¹
- self-cleavage kobs at 2500 uM GlcN6P [6]: 0.000714 ± 0.00014 s⁻¹
- self-cleavage kobs at 10000 uM GlcN6P [7]: 0.000522 ± 5e-05 s⁻¹

Variant: G37C G51A
- kcat [1]: < 1e-05 s⁻¹
- self-cleavage kobs at 160 uM GlcN6P [4]: < 1e-05 s⁻¹
